This note sets out measurements from patent US20090068637A1.

Experiment [1] concerns the target hemagglutinin of subtype H5 avian influenza virus (strain not stated) (avian influenza virus subtype H5).
In experiment [2] the target is HA of H5N1 virus strain B7 (avian influenza virus H5N1). In words: cell-based or functional assay.
The target in experiment [3] is HA of H5N1 virus strain B5 (avian influenza virus H5N1). In words: cell-based or functional assay.
Experiment [4] concerns the target HA of H5N1 virus strain A1 (avian influenza virus H5N1). In words: cell-based or functional assay.
The target of experiment [5] is HA of H5N1 virus strain A5 (avian influenza virus H5N1). In words: cell-based or functional assay.
Experiment [6] concerns the target HA of H5N1 virus strain B3 (avian influenza virus H5N1). In words: cell-based or functional assay.
The target of experiment [7] is HA of H5N1 virus strain D1 (avian influenza virus H5N1). In words: cell-based or functional assay.
Experiment [8] concerns the target HA of H5N1 virus strain F2 (avian influenza virus H5N1). The experiment is described as follows: cell-based or functional assay.
The target in experiment [9] is HA of H5N1 virus strain B2 (avian influenza virus H5N1). The experiment is described as follows: cell-based or functional assay.
Experiment [10] deals with HA of H5N1 virus strain H1 (avian influenza virus H5N1). In words: cell-based or functional assay.
Experiment [11] deals with HA of H5N1 virus strain G1 (avian influenza virus H5N1). The experiment is described as follows: cell-based or functional assay.
Experiment [12] concerns the target HA of H5N1 virus strain F3 (avian influenza virus H5N1). The experiment is described as follows: cell-based or functional assay.
Experiment [13] deals with HA of H5N1 virus strain H2 (avian influenza virus H5N1). The experiment is described as follows: cell-based or functional assay.
In experiment [14] the target is HA of H5N1 virus strain A8 (avian influenza virus H5N1). The experiment is described as follows: cell-based or functional assay.
Experiment [15] deals with HA of H5N1 virus strain A6 (avian influenza virus H5N1). The experiment is described as follows: cell-based or functional assay.
Experiment [16] deals with HA of H5N1 virus strain B4 (avian influenza virus H5N1). The experiment is described as follows: cell-based or functional assay.
For experiment [17], the target named is HA of H5N1 virus strain B1 (avian influenza virus H5N1). The experiment is described as follows: cell-based or functional assay.
The target of experiment [18] is HA of H5N1 virus strain A7 (avian influenza virus H5N1). In words: cell-based or functional assay.
Experiment [19] deals with HA of H5N1 virus strain E1 (avian influenza virus H5N1). In words: cell-based or functional assay.
For experiment [20], the target named is HA of H5N1 virus strain A3 (avian influenza virus H5N1). The experiment is described as follows: cell-based or functional assay.
For experiment [21], the target named is HA of H5N1 virus strain C2 (avian influenza virus H5N1). The experiment is described as follows: cell-based or functional assay.
In experiment [22] the target is HA of H5N1 virus strain B6 (avian influenza virus H5N1). In words: cell-based or functional assay.
The target in experiment [23] is HA of H5N1 virus strain B8 (avian influenza virus H5N1). In words: cell-based or functional assay.
Experiment [24] concerns the target HA of H5N1 virus strain C3 (avian influenza virus H5N1). In words: cell-based or functional assay.
Experiment [25] has as its target HA of H5N1 virus strain A2 (avian influenza virus H5N1). The experiment is described as follows: cell-based or functional assay.
The target of experiment [26] is HA of H5N1 virus strain E2 (avian influenza virus H5N1). In words: cell-based or functional assay.
Experiment [27] concerns the target HA of H5N1 virus strain D2 (avian influenza virus H5N1). In words: cell-based or functional assay.
The target of experiment [28] is H5 virus strains (thirty-four strains of H5N1 viruses). The experiment is described as follows: cell-based or functional assay.
In experiment [29] the target is 7aa peptide 8H5A (HGMLPVY). The experiment is described as follows: phage ELISA: mAb coated at 5 ug/ml, phage 1:1000, anti-M13/HRP. (In general: ELISA stands for enzyme-linked immunosorbent assay.)
Experiment [30] addresses 7aa peptide 8H5E (NSGPWLT). The experiment is described as above.

B1: 8H5 single chain antibody (scFv)
scFv: QVQLQQSGAELMKPGASVKISCKATGYTFSNYWIEWIKQRPGHGLEWIGEILPGSDRTNYNGKFKGKATFTADTSSNTAHMQLSSLTSEDSAVYYCANRYDGYYFGLDYWGQGTSVAVSSAGGGGSEIVLTQSPAIMSASLGEKVTMSCRASSSVNFVYWYQQRSDASPKLLIYYSSNLAPGVPPRFSGSGSGNSYSLTISGLEGEDAATYYCQHFTSSPYTFGGGTNLEIKR
Take B1: the average value of the testing wells (ELISA reading) in [1] was determined as 0.597. Besides, the HI titer (n) (n (dilution 2^n)) was determined as 4 in experiment [2]; 0 in [3]; 3.5 in [4]; 4 in experiment [5]; 5 in experiment [6]; 2.5 in experiment [7]. For the same molecule, the HI titer (n) (n (dilution 2^n)) in [8], in [9], in [10], in experiment [11], in experiment [12] and in experiment [13] was 0 in each case. Moreover, the HI titer (n) (n (dilution 2^n)) in experiment [14] was 2.5; in [15], 3; in experiment [16] it was 5; in [17], 4; in experiment [18], 3; in [19], 0. In addition, the HI titer (n) (n (dilution 2^n)) is 3.5 in experiment [20]; 1 in experiment [21]; 3.5 in experiment [22]; 3 in [23]; 0 in experiment [24]; 4.5 in [25]. Also, the figures for the HI titer (n) (n (dilution 2^n)) in experiment [26] and in experiment [27] were 0 and 2, respectively.

B2: monoclonal antibody 8H5 (antibody, V domains shown)
VH: QVQLQQSGAELMKPGASVKISCKATGYTFSNYWIEWIKQRPGHGLEWIGEILPGSDRTNYNGKFKGKATFTADTSSNTAHMQLSSLTSEDSAVYYCANRYDGYYFGLDYWGQGTSVAVSSA
VL: EIVLTQSPAIMSASLGEKVTMSCRASSSVNFVYWYQQRSDASPKLLIYYSSNLAPGVPPRFSGSGSGNSYSLTISGLEGEDAATYYCQHFTSSPYTFGGGTNLEIKR
The molecule B2 came in with an HI assay: positive number/total virus number (of 34 strains) in [28] of 34. Moreover, the figures for the ELISA reading in experiment [29] and in experiment [30] were 0.559 and 0.25, respectively.
